# According to the DeepSol protein solubility set:
# Experiment: soluble on expression in E. coli; label from the status in PepcDB or PDB records
row,Sequence,soluble on expression in E. coli
1,MAHHHHHHMSEERVKILVLGPSRSGKSTIANFLAGLRETPTKGYYETQPLRILEVEIGLDNLKVGGRHVVGPKKAIVQLWDLGGSSKHQAGWQAVAANADGIIYVFNPEVRGAEKELVLWHKNFALDQDKLDERNNFKVRVPDKHSLVFSHHSSMPELAVGDNAIPSLPKQLRGVRAIETSLDYQSGNFKEAFDAMVEQIVVSRIVAEEDEILQKEREAGDAPRMVR,not soluble
2,MSLNQLLFVPLGGIGEIGMNLALYGYGPEHAREWIAVDVGISFAGADFPGVDLVFPDIRFIEELGDKLKGIVITHAHEDHYGALLDLWPKMKVPVYATAFTAAMLAAKREGEPGAPKIPVTQFSAGDRFKVGPFEIEAINVTHSIPEPVALAIRSPAGTVVHTGDWKIDPTPALGAPTDEKRLREIGDEGVLAMICDSTNALREGVSPSESEVSASLGEIIRGAKGRVAVTTFSSNVGRIRSIAAAARDAGRQVLLMGRSMRRVVDVSTELGYMDGIPPFLGEQDFGYIPPEKAVIILTGSQGETRAALARLSRDEHPTVALSQGDLVIFSSRAIPGNEKLIIDIKNALIERGVQILEDGEKLVHVSGHPRRSEMRQMYEWVRPTIAVPAHGEAAHLSAHAKLARELGVKQVVPARNGKMVQLSPGAASVIADVPVGRLFKDEGHHHHHH,soluble
3,MPSDSTSNIDTTQRQSADLMAEGFGAGVNAPFLVIVDTHEVNADSTALQPLIEAQEPEEGEFDREQAARFATYMYVTQTYNSNIDVKNAQIISVNDDFTAAQILVTPYTGPADKETPELMHVLRAQEAQIEDVTGTELGTTGFTAVQLDITEQLEDAMPVYLEHHHHHH,not soluble
4,MSLKGSLMPANVLFSARSELWPVYQPLISTYLREMGIDFDLRRDFPPEEVDYVVYAPNGGLRDFTPFTRLKAVLSLWAGVESIADNPTLTVPLARMVDHGLTQGMTEWVVGHVLRYHLGMDAHIHGLNGDWRQDVPPLASQRQVTILGLGALGEAAARALSALGFQVTGWSRSPKELPGIACLHGPDGLDQALARAEILVLLLPSTAATENTLNTQTLARLPRGARIINPGRGPLIDDDALLAALDSGQVGHATLDVFRIEPLPRDHPYWGHPNVTVTPHIASETRPETAAQVICEEGHHHHHH,soluble
5,GSMTQIHQINDIDVHRITSGQVITDLTTAVKELVDNSIDANANQIEIIFKDYGLESIECSDNGDGIDPSNYEFLALKHYTSKIAKFQDVAKVQTLGFRGEALSSLCGIAKLSVITTTSPPKADKLEYDMVGHITSKTTTSRNKGTTVLVSQLFHNLPVRQKEFSKTFKRQFTKCLTVIQGYAIINAAIKFSVWNITPKGKKNLILSTMRNSSMRKNISSVFGAGGMRGLEEVDLVLDLNPFKNRMLGKYTDDPDFLDLDYKIRVKGYISQNSFGCGRNSKDRQFIYVNKRPVEYSTLLKCCNEVYKTFNNVQFPAVFLNLELPMSLIDVNVTPDKRVILLHNERAVIDIFKTTLSDYYNRQELALPK,soluble
6,MENELQDFPEPNYNVHAFYYVWYGSPQFDGKYVHWDHPLLPHWDPKVASSYSTGRHQPPEDIGANFYPALGPYSSRDPAVLEEHMRQLRMAAVGVLAVSWYPRSMKDDNGEEIDSLLPLILDAADKYQLKVLYNLYVFKNVICINKYV,not soluble
7,MSSVMSHTGGKEGTYPGTRASATMIGDDETNWGTKSLAILDMPFTAVMDTLLLPWDVFRKDSSVRSRVEKSEANAQATNAVIPPARMPDNLEHHHHHH,not soluble
8,GPGSMDAIHILKENALRLVSAGQPISALHLVEVLCELQPDSDENRSLKIRCLYELREFDSVLKLAKQVTFACDQNSEVFLLAVKAAFELGDLKTCVQYAMTLINADSSKVVAMCFVAKAAELSGDPAKAVRFYKMALEADPFCGEAFSALTERHLLDRWEMLKLIDSLCIPAEVEVYRSTLKARIGSDYLTPGISGVPRTLVLLAGAKKEYESNNLRQALSLTTEILEVEPYHRQTLCLHLCILVDSKATPLLFEKAHFLSKNKCYTELAVYAIGCFYYSLSNYERAGRYFSRASELDCYFAEAWVAYGHCYAKLEEGEQALNVYRRTMNFFPGLNACCTYVGMQYSRVNQRSVARCFFEESLRKNSIDPLVLNELGVLALAEDNPKQALELFQKAYDSLPNRENPSEHSDCILFNLATMYRKLGRYEAAIDYYNQYVRSRPNASHGHCALGFTYHLSGNIKAAISCYHTAESIKPDSFCRDLLRRALELDFGACGRLSWDSERPHLSFSPGEVSFSTVSRRFRSESTAADSVAASPPPRVGRSLDFQHQ,not soluble
9,RMNLFDLGTHHALVDYAHNPAGYEAVGAFVKNWPGERIGVVGGPGDRRDEDLILLGRIAAAVFDRIIVKEDDDKRGRHAGEVADLIRQGIQEENPNCQYETILDEQRALNVALDEAPQEALVVIFPES,not soluble
10,MLRSNLCRGSRILARLTTTPRTYTSAATAAAANRGHIIKTYFNRDSTTITFSMEESSKPVSVCFNNVFLRDASHSAKLVTTGELYHNEKLTAPQDIQISEDGKSLVVKWKDGGHHQFPLQFFIDYKGSSFVSPATRKQESRYRPQLWNKRILKDNVKDLLSVSYNEFIDPKDDSKLFQTLVNLQKFGIAFISGTPSSSSEGLTIQKICERIGPIRSTVHGEGTFDVNASQATSVNAHYANKDLPLHTDLPFLENVPGFQILQSLPATEGEDPNTRPMNYFVDAFYATRNVRESDFEAYEALQIVPVNYIYENGDKRYYQSKPLIEHHDINEDNTLLGNYEALIKCINYSPPYQAPFTFGIYDKPSDLNNNLDLNLITTPAKLTERFLFKSFIRGLNLFESHINDFNNQFRLQLPENCCVIFNNRRILHANSLTSSNQQWLKGCYFDSDTFKSKLKFLEEKFPHDK,soluble
11,MAGDPMTELEMHLLNALEQLQQDYTQRLKDWESPFTDLQHMFELTRQENGQLREQCDDLSQQVQRLAGQVDHLSRLFITNSRLEHHHHHH,not soluble
12,GEIWVYIDHIGEKPNRASFEIMGEARRIADLMDTSLSAVMVGGEATKSLIEETFEYGADKVYFVETKGFDRYDNEVYTRALAKVIKKYKPEAVFFPGTKNARELASTTAIEVDTGLIADCTNFDVDDKGVLLSTRPDFGGKEMSTIICPRHRPVMVTVRAGVFMPLPRVPGRKGELAREEIDDLFTRLKVLDYRVIEKRNI,not soluble
13,MGSDKIHHHHHHMSHLALQPGFDFQQAGKEVLEIEREGLAELDQYINQHFTLACEKMFNCTGKVVVMGMGKSGHIGRKMAATFASTGTSSFFVHPGEAAHGDLGMVTPQDVVIAISNSGESSEIAALIPVLKRLHVPLICITGRPESSMARAADVHLCVKVPKEACPLGLAPTSSTTATLVMGDALAVALLKARGFTAEDFALSHPGGALGRKLLLRVSDIMHTGDEIPHVNKHATLRDALLEITRKNLGMTVICDESMKIDGIFTDGDLRRVFDMGGDMRQLGIAEVMTPGGIRVRPGILAVDALNLMQSRHITSVLVADGDQLLGVLHMHDLLRAGVV,not soluble
14,MKIAVVGAGLTGLKTAKELAEHAKVVVFEPDDVGGLVATFREFSIEKFYHHCFRDDAFLLEEIKRCGLKSKLVWKIAKTGFAANGKIYPLNTPFEILRYPLLTFGEKIRLARFTLKSRKLNYEDFDDVGVSEGIREELGEGLLERFFMPLLRSKFGENAEKVSYAWLLGRVAIRSNRKYSGEEIGYIRHGFQQLVDKMAEGLEIRRERARIRKNARWDVNGEDFDAVVYTAPLSELGELAEKLGIPEVRYQSSVCALIGAEETLTENIYWTNIADKMSFGAVIEHTNFMPFEDYGIHLMYLAAYSTPDGWLFNLSDKEIEKLFLSDLRKLGFKTESVRFVRVFKAKYSGPIYEKGYRRKITPYRVAEGFYVAGMTSRPNYPERSMNGSIRAGKEVAEQVKEDLLLEHHHHHH,soluble
15,RLTRKEEWLREVLSSIREAIIVTNASGEIVLANPAASRLFMIEAARKRSIPVTNIEDAAMRELFERVQKRQSGIYNEELTAMTSKGKRTLKVTAVPVMRRGALFDGTVLVINDVT,not soluble
16,EAMKIKNQFATWDYEKKLQSMEHDSSIQKQLLATQRAQIEQRLAAQKAALEAERDAAGYHAAAGEADNEGVRQAYDALAQDSARRARDLAETAQRGKSQLDEIVGRLKDLADRSAANIINQGINQTVVVKLEKTGRLHTDQDIAKALEETLNAVKGLEARVEMVEAARAPSALEAAHSQL,not soluble
17,MSLTETAIENSVTVFHIESDEIKGRIIGREGRNIRALEAATGVEIVVDDTPEAIVLSAFDPVRREIARLALHQLVTDGRIHPARIEEVVAKVRKQVEEEIIETGKRTTIDLGIHGLHPELIRIIGKMKYRSSYGQNLLQHARETANLCAVMASELGLNPKKAKRAGLLHDIGKVPDEEPELPHALLGMKLAEKFKEKPDICNAIGAHHDEIEMTSLLAPIVQVCDAISGARPGARREIVEAYIKRLNDLEQLAMSYPGVTKTYAIQAGRELRVIVGADKIDDKQTENLSGEIAKKIQDEMTYPGQVKITVIRETRAVSFAKEGHHHHHH,soluble
18,GMMNDYLNFLDGRVSVRRFDPDAVLPNDLIKDMLEHASYAPSGNNFQPWRVVVVKNKNKQEDLKKLAALQPQVATASAVFLLFGDENAYDLTWWQEFHVQKGIITKDEAAARAERIRQYFDLHPEDKETQGLRLDVGLFAMNLMQVVRVYGYDSVPMRGVDFDAIKTYLDMPNGWEPILMLPVGKALQAGNPHVRKSVAEFAEIIE,soluble
19,GDVVEAVENAVARVADTIGSGPSNSQAVPALTAVETGHTSQVTPSDTVQTRHVKNYHSRSESSIENFLSRSACVYMGEYHTTNSDQTKLFASWTISARRMVQMRRKLEIFTYVRFDVEVTFVITSKQDQGTQLGQDMPPLTHQIMYIPPGGPIPKSVTDYTWQTSTNPSIFWTEGNAPPRMSIPFISIGNAYSNFYDGWSHFSQNGVYGYNTLNHMGQIYVRHVNGSSPLPMTSTVRMYFKPKHVKAWVPRPPRLCQYKNASTVNFSPTDITDKRNSITYIPDTVKPDVSNH,soluble
20,MKTFTVQFHREDDVEAMNVGKLSQEDFDKATEGGTRHLFDLDTNIGYFVFFDAEDNEGKVSYLMLQYEEDNEDPSACYSFELKDFYEFMALYLNDLEFAEEEEMAEDGEEEYGPIHHLAHLLYHIVEKGKTVEV,not soluble
21,MGSDKIHHHHHHMAEINYQLIDFDNRGDLGLKNEPFELFGRMKIDRLNNNWSYEVEIFTHKRTMAFPDERYHLQEINQNGFALGAYDDSNCVGLAIYQKHWNKYLYLKDLKVNRDHRKLGIGNQLIKEGLRRAVQLGYKGVYAVCQDNNLAACQFYLKIGFQIGGFNDFDYNYTTQSGKSDIYFYLDKNSAR,not soluble
22,MAAKIEDMETRIEALMDVMRVPPGKKINLKKDYDPGFTGKWMTKAEAKETLARGIQMLAEMQDKLWAQNQYAVLMNLQALDAAGKDGTIKHVMSGVNPQGVDVHSFKGPSSEEMDHDYLWRNFKALPSRGRIGIFNRSYYEEVLVVRVHPEFLASQQLPPKLKDKRIWRRRFEEINNFEKYLVDNGIVVIKFFLYVSKEAQKERFLRRTQLPEKNWKFSAADIKERAHWDDYIAAYEDMFNHTSTEWAPWYIVPADHKWFTRLAVAAVLYYTMEKLNLAYPTVSEEQKQALIAAKEELEREDSGPKDKAVVKAEEEEDADPQDPASNGEVPKDESKKESKKKGSKNR,not soluble
23,MTETDFKLKYWGNQEQDYILPTVGLGREYLVLGKLLISLSKWRAKGLIDFDVYLRPTGVGTLTNTINYEYYKGLEDKYDLTLYIRAKDSYYPLLWIDITGSSWTEEQSKERYGESIYAILSVKVETAKKYDVLGRVFFIHYNDTEDKLKCISALQILNLERQNKIKKDKFERGAKSEYYLIPTSYWKNLTELRIALRGFYQSFKEYLARSNK,soluble
